Measurements from paper PMC9482650, “Quantitative fragmentomics allow affinity mapping of interactomes” (Nature Communications, 2022).
Positions count from the first letter of the chain named.

T1: MPDZ_5, O75970
T1 sequence (O75970 695-796, limits assumed, looked up): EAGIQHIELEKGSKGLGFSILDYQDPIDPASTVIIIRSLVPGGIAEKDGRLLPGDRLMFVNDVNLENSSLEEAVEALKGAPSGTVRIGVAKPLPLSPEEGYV

T2: HTRA3, P83110
T2 sequence (P83110 354-453, limits assumed, looked up): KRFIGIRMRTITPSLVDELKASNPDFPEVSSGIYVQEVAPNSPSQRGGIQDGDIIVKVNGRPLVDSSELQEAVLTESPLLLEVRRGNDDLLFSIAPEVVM

T3: GRIP1_4, Q9Y3R0
T3 sequence (Q9Y3R0 467-571, limits assumed, looked up): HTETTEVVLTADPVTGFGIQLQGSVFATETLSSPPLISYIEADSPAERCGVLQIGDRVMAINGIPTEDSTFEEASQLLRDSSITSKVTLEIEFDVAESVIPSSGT

T4: APBA2_2, Q99767
T4 sequence (Q99767 654-744, limits assumed, looked up): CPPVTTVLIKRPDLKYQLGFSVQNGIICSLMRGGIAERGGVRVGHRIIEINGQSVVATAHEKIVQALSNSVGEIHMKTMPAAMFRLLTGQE

T5: NHERF3_3, Q5T2W1
T5 sequence (Q5T2W1 238-333, limits assumed, looked up): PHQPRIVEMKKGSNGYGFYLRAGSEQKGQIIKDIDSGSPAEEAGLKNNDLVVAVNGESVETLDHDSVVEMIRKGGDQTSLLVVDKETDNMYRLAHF

T6: LIN7C, Q9NUP9
T6 sequence (Q9NUP9 88-185, limits assumed, looked up): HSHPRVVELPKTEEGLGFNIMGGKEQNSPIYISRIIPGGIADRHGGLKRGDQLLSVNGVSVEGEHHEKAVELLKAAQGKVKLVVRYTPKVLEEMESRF

T7: PDZD7_3, Q9H5P4
T7 sequence (Q9H5P4 857-944, limits assumed, looked up): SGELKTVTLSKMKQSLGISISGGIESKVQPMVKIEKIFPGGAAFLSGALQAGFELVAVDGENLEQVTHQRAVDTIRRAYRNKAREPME

T8: LIN7B, Q9HAP6
T8 sequence (Q9HAP6 88-185, limits assumed, looked up): T6 sequence (Q9NUP9 88-185, limits assumed, looked up) with S2A, E13D, I35V, I40V, H65Q, K79S, K89R, S96A

T9: APBA3_1, O96018
T9 sequence (O96018 389-490, limits assumed, looked up): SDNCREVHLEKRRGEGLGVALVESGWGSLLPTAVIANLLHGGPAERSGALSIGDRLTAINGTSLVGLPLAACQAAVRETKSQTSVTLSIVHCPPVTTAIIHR


Biological target: GRIP2_7, Q9C0E4
Assay: holdup assay
Parameters: key: below the threshold = too weak to quantify, mostly under pKd 3.1 to 4
Conditions: plain residues with an end cap or a label only (N-terminal biotin on a linker: ado-ado)

Chain of GRIP2_7, Q9C0E4 (Q9C0E4 934-1023): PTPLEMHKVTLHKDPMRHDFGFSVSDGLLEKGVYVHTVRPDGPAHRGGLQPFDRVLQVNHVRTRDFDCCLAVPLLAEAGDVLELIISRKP

Row | Binder | pKd
1 | IPGKEFDTPL [PLCB1, Q9NQ66] | below the threshold
2 | NLQEHSTTSV [RSBN1, Q5VWQ0] | below the threshold

Biological target: Inadl_5, Q8NI35
Assay: holdup assay
Parameters: key: below the threshold = too weak to quantify, mostly under pKd 3.1 to 4
Conditions: plain residues with an end cap or a label only (N-terminal biotin on a linker: ado-ado)

Chain of Inadl_5, Q8NI35 (Q8NI35 673-780): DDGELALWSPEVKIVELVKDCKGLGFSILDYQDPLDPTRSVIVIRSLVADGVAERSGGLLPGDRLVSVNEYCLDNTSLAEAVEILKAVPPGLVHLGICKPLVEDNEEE

Row | Binder | pKd
3 | IPGKEFDTPL [PLCB1, Q9NQ66] | below the threshold
4 | NLQEHSTTSV [RSBN1, Q5VWQ0] | below the threshold

Biological target: T1, MPDZ_5, O75970
Assay: holdup assay
Parameters: key: below the threshold = too weak to quantify, mostly under pKd 3.1 to 4
Conditions: plain residues with an end cap or a label only (N-terminal biotin on a linker: ado-ado)

Row | Binder | pKd
5 | IPGKEFDTPL [PLCB1, Q9NQ66] | below the threshold
6 | NLQEHSTTSV [RSBN1, Q5VWQ0] | below the threshold

Biological target: T2, HTRA3, P83110
Assay: holdup assay
Parameters: key: below the threshold = too weak to quantify, mostly under pKd 3.1 to 4
Conditions: plain residues with an end cap or a label only (N-terminal biotin on a linker: ado-ado)

Row | Binder | pKd
7 | IPGKEFDTPL [PLCB1, Q9NQ66] | below the threshold
8 | NLQEHSTTSV [RSBN1, Q5VWQ0] | below the threshold

Biological target: LDB3, O75112
Assay: holdup assay
Parameters: key: below the threshold = too weak to quantify, mostly under pKd 3.1 to 4
Conditions: plain residues with an end cap or a label only (N-terminal biotin on a linker: ado-ado)

Chain of LDB3, O75112 (O75112 1-94): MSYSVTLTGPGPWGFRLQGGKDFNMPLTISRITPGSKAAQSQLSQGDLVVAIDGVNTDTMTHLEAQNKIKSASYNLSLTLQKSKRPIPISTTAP

Row | Binder | pKd
9 | IPGKEFDTPL [PLCB1, Q9NQ66] | below the threshold
10 | NLQEHSTTSV [RSBN1, Q5VWQ0] | below the threshold

Biological target: ARHGEF12, Q9NZN5-2
Assay: holdup assay
Parameters: key: below the threshold = too weak to quantify, mostly under pKd 3.1 to 4
Conditions: plain residues with an end cap or a label only (N-terminal biotin on a linker: ado-ado)

Chain of ARHGEF12, Q9NZN5-2 (Q9NZN5 other isoform, or with tags, fused parts or gaps): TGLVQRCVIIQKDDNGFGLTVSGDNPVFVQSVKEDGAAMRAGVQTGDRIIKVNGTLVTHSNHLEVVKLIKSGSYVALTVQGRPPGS

Row | Binder | pKd
11 | IPGKEFDTPL [PLCB1, Q9NQ66] | 3.61
12 | NLQEHSTTSV [RSBN1, Q5VWQ0] | 4

Biological target: PDZRN4_1, Q6ZMN7
Assay: holdup assay
Parameters: key: below the threshold = too weak to quantify, mostly under pKd 3.1 to 4
Conditions: plain residues with an end cap or a label only (N-terminal biotin on a linker: ado-ado)

Chain of PDZRN4_1, Q6ZMN7 (Q6ZMN7 213-318): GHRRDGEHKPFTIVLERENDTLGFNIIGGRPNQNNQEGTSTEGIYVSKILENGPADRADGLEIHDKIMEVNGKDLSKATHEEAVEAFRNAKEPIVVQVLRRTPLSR

Row | Binder | pKd
13 | IPGKEFDTPL [PLCB1, Q9NQ66] | 4.3
14 | NLQEHSTTSV [RSBN1, Q5VWQ0] | below the threshold

Biological target: T3, GRIP1_4, Q9Y3R0
Assay: holdup assay
Parameters: key: below the threshold = too weak to quantify, mostly under pKd 3.1 to 4
Conditions: plain residues with an end cap or a label only (N-terminal biotin on a linker: ado-ado)

Row | Binder | pKd
15 | IPGKEFDTPL [PLCB1, Q9NQ66] | below the threshold
16 | NLQEHSTTSV [RSBN1, Q5VWQ0] | below the threshold

Biological target: T4, APBA2_2, Q99767
Assay: holdup assay
Parameters: key: below the threshold = too weak to quantify, mostly under pKd 3.1 to 4
Conditions: plain residues with an end cap or a label only (N-terminal biotin on a linker: ado-ado)

Row | Binder | pKd
17 | IPGKEFDTPL [PLCB1, Q9NQ66] | below the threshold
18 | NLQEHSTTSV [RSBN1, Q5VWQ0] | below the threshold

Biological target: IL16_1, Q14005
Assay: holdup assay
Parameters: key: below the threshold = too weak to quantify, mostly under pKd 3.1 to 4
Conditions: plain residues with an end cap or a label only (N-terminal biotin on a linker: ado-ado)

Chain of IL16_1, Q14005 (Q14005 210-306): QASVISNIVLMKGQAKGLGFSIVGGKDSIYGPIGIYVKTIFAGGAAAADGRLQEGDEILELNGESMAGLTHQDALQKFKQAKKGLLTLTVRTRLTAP

Row | Binder | pKd
19 | IPGKEFDTPL [PLCB1, Q9NQ66] | below the threshold
20 | NLQEHSTTSV [RSBN1, Q5VWQ0] | below the threshold

Biological target: T5, NHERF3_3, Q5T2W1
Assay: holdup assay
Parameters: key: below the threshold = too weak to quantify, mostly under pKd 3.1 to 4
Conditions: plain residues with an end cap or a label only (N-terminal biotin on a linker: ado-ado)

Row | Binder | pKd
21 | IPGKEFDTPL [PLCB1, Q9NQ66] | below the threshold
22 | NLQEHSTTSV [RSBN1, Q5VWQ0] | below the threshold

Biological target: DLG1_1, Q12959
Assay: holdup assay
Parameters: key: below the threshold = too weak to quantify, mostly under pKd 3.1 to 4
Conditions: plain residues with an end cap or a label only (N-terminal biotin on a linker: ado-ado)

Row | Binder | pKd
23 | IPGKEFDTPL [PLCB1, Q9NQ66] | below the threshold
24 | NLQEHSTTSV [RSBN1, Q5VWQ0] | 3.5

Biological target: DLG4_2, P78352
Assay: holdup assay
Parameters: key: below the threshold = too weak to quantify, mostly under pKd 3.1 to 4
Conditions: plain residues with an end cap or a label only (N-terminal biotin on a linker: ado-ado)

Chain of DLG4_2, P78352 (P78352 155-259): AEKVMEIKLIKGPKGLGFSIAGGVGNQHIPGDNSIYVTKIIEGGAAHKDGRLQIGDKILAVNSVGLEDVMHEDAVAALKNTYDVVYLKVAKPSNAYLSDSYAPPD

Row | Binder | pKd
25 | IPGKEFDTPL [PLCB1, Q9NQ66] | below the threshold
26 | NLQEHSTTSV [RSBN1, Q5VWQ0] | 3.88

Biological target: Inadl_10, Q8NI35
Assay: holdup assay
Parameters: key: below the threshold = too weak to quantify, mostly under pKd 3.1 to 4
Conditions: plain residues with an end cap or a label only (N-terminal biotin on a linker: ado-ado)

Chain of Inadl_10, Q8NI35 (Q8NI35 1673-1763): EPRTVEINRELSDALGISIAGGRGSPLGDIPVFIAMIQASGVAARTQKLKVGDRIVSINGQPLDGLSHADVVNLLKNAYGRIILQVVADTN

Row | Binder | pKd
27 | IPGKEFDTPL [PLCB1, Q9NQ66] | below the threshold
28 | NLQEHSTTSV [RSBN1, Q5VWQ0] | below the threshold

Biological target: LAP2, Q96RT1
Assay: holdup assay
Parameters: key: below the threshold = too weak to quantify, mostly under pKd 3.1 to 4
Conditions: plain residues with an end cap or a label only (N-terminal biotin on a linker: ado-ado)

Chain of LAP2, Q96RT1 (Q96RT1 other isoform, or with tags, fused parts or gaps): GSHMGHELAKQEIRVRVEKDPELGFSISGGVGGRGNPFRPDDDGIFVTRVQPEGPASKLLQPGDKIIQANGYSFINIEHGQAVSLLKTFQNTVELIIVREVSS

Row | Binder | pKd
29 | IPGKEFDTPL [PLCB1, Q9NQ66] | 3.58
30 | NLQEHSTTSV [RSBN1, Q5VWQ0] | 3.72

Biological target: PDLIM1, O00151
Assay: holdup assay
Parameters: key: below the threshold = too weak to quantify, mostly under pKd 3.1 to 4
Conditions: plain residues with an end cap or a label only (N-terminal biotin on a linker: ado-ado)

Chain of PDLIM1, O00151 (O00151 1-87): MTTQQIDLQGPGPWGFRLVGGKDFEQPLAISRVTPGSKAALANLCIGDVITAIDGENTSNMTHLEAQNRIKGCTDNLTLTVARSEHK

Row | Binder | pKd
31 | IPGKEFDTPL [PLCB1, Q9NQ66] | below the threshold
32 | NLQEHSTTSV [RSBN1, Q5VWQ0] | below the threshold

Biological target: FRMPD3, Q5JV73
Assay: holdup assay
Parameters: key: below the threshold = too weak to quantify, mostly under pKd 3.1 to 4
Conditions: plain residues with an end cap or a label only (N-terminal biotin on a linker: ado-ado)

Chain of FRMPD3, Q5JV73 (Q5JV73 12-100): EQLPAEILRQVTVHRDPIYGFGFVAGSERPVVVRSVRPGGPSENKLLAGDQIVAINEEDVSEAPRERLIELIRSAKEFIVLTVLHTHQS

Row | Binder | pKd
33 | IPGKEFDTPL [PLCB1, Q9NQ66] | 3.55
34 | NLQEHSTTSV [RSBN1, Q5VWQ0] | below the threshold

Biological target: HTRA1, Q92743
Assay: holdup assay
Parameters: key: below the threshold = too weak to quantify, mostly under pKd 3.1 to 4
Conditions: plain residues with an end cap or a label only (N-terminal biotin on a linker: ado-ado)

Chain of HTRA1, Q92743 (Q92743 360-477): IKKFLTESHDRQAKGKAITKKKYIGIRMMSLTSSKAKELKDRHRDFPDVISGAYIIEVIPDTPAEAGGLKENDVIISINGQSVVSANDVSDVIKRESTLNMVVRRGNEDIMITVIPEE

Row | Binder | pKd
35 | IPGKEFDTPL [PLCB1, Q9NQ66] | below the threshold
36 | NLQEHSTTSV [RSBN1, Q5VWQ0] | 3.74

Biological target: MAGI2_3, Q86UL8
Assay: holdup assay
Parameters: key: below the threshold = too weak to quantify, mostly under pKd 3.1 to 4
Conditions: plain residues with an end cap or a label only (N-terminal biotin on a linker: ado-ado)

Chain of MAGI2_3, Q86UL8 (Q86UL8 600-682): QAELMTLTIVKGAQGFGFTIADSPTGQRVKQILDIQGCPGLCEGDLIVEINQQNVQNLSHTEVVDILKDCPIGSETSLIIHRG

Row | Binder | pKd
37 | IPGKEFDTPL [PLCB1, Q9NQ66] | below the threshold
38 | NLQEHSTTSV [RSBN1, Q5VWQ0] | below the threshold

Biological target: T6, LIN7C, Q9NUP9
Assay: holdup assay
Parameters: key: below the threshold = too weak to quantify, mostly under pKd 3.1 to 4
Conditions: plain residues with an end cap or a label only (N-terminal biotin on a linker: ado-ado)

Row | Binder | pKd
39 | IPGKEFDTPL [PLCB1, Q9NQ66] | below the threshold
40 | NLQEHSTTSV [RSBN1, Q5VWQ0] | below the threshold

Biological target: DLG4_3, P78352
Assay: holdup assay
Parameters: key: below the threshold = too weak to quantify, mostly under pKd 3.1 to 4
Conditions: plain residues with an end cap or a label only (N-terminal biotin on a linker: ado-ado)

Chain of DLG4_3, P78352 (P78352 306-403): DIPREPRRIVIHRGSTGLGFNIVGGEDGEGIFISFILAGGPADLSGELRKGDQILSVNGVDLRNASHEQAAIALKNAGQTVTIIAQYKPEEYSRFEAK

Row | Binder | pKd
41 | IPGKEFDTPL [PLCB1, Q9NQ66] | below the threshold
42 | NLQEHSTTSV [RSBN1, Q5VWQ0] | 3.59

Biological target: T7, PDZD7_3, Q9H5P4
Assay: holdup assay
Parameters: key: below the threshold = too weak to quantify, mostly under pKd 3.1 to 4
Conditions: plain residues with an end cap or a label only (N-terminal biotin on a linker: ado-ado)

Row | Binder | pKd
43 | IPGKEFDTPL [PLCB1, Q9NQ66] | 3.8
44 | NLQEHSTTSV [RSBN1, Q5VWQ0] | 4

Biological target: T8, LIN7B, Q9HAP6
Assay: holdup assay
Parameters: key: below the threshold = too weak to quantify, mostly under pKd 3.1 to 4
Conditions: plain residues with an end cap or a label only (N-terminal biotin on a linker: ado-ado)

Row | Binder | pKd
45 | IPGKEFDTPL [PLCB1, Q9NQ66] | below the threshold
46 | NLQEHSTTSV [RSBN1, Q5VWQ0] | below the threshold

Biological target: LNX1_3, Q8TBB1
Assay: holdup assay
Parameters: key: below the threshold = too weak to quantify, mostly under pKd 3.1 to 4
Conditions: plain residues with an end cap or a label only (N-terminal biotin on a linker: ado-ado)

Chain of LNX1_3, Q8TBB1 (Q8TBB1 500-596): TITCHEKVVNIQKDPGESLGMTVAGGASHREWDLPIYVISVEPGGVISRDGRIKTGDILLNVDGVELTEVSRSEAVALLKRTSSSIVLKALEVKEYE

Row | Binder | pKd
47 | IPGKEFDTPL [PLCB1, Q9NQ66] | below the threshold
48 | NLQEHSTTSV [RSBN1, Q5VWQ0] | below the threshold

Biological target: MAGI2_4, Q86UL8
Assay: holdup assay
Parameters: key: below the threshold = too weak to quantify, mostly under pKd 3.1 to 4
Conditions: plain residues with an end cap or a label only (N-terminal biotin on a linker: ado-ado)

Chain of MAGI2_4, Q86UL8 (Q86UL8 772-865): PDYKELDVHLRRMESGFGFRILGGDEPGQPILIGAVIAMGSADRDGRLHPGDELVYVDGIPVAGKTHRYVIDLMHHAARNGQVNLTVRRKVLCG

Row | Binder | pKd
49 | IPGKEFDTPL [PLCB1, Q9NQ66] | below the threshold
50 | NLQEHSTTSV [RSBN1, Q5VWQ0] | 3.5

Biological target: T9, APBA3_1, O96018
Assay: holdup assay
Parameters: key: below the threshold = too weak to quantify, mostly under pKd 3.1 to 4
Conditions: plain residues with an end cap or a label only (N-terminal biotin on a linker: ado-ado)

Row | Binder | pKd
51 | IPGKEFDTPL [PLCB1, Q9NQ66] | below the threshold
52 | NLQEHSTTSV [RSBN1, Q5VWQ0] | below the threshold

Biological target: AHNAK1, Q09666
Assay: holdup assay
Parameters: key: below the threshold = too weak to quantify, mostly under pKd 3.1 to 4
Conditions: plain residues with an end cap or a label only (N-terminal biotin on a linker: ado-ado)

Chain of AHNAK1, Q09666 (Q09666 4-100): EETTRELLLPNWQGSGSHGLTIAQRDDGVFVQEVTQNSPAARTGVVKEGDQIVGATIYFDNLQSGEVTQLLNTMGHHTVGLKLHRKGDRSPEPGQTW

Row | Binder | pKd
53 | IPGKEFDTPL [PLCB1, Q9NQ66] | below the threshold
54 | NLQEHSTTSV [RSBN1, Q5VWQ0] | below the threshold

Biological target: DLG2_2, Q15700
Assay: holdup assay
Parameters: key: below the threshold = too weak to quantify, mostly under pKd 3.1 to 4
Conditions: plain residues with an end cap or a label only (N-terminal biotin on a linker: ado-ado)

Chain of DLG2_2, Q15700 (Q15700 189-283): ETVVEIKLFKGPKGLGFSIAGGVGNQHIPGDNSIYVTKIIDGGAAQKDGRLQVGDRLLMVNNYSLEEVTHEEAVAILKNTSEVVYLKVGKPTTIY

Row | Binder | pKd
55 | IPGKEFDTPL [PLCB1, Q9NQ66] | below the threshold
56 | NLQEHSTTSV [RSBN1, Q5VWQ0] | 3.67

Biological target: IL16_4, Q14005
Assay: holdup assay
Parameters: key: below the threshold = too weak to quantify, mostly under pKd 3.1 to 4
Conditions: plain residues with an end cap or a label only (N-terminal biotin on a linker: ado-ado)

Chain of IL16_4, Q14005 (Q14005 1229-1329): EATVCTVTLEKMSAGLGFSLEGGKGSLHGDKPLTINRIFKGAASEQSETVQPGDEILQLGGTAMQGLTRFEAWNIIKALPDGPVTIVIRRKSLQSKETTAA

Row | Binder | pKd
57 | IPGKEFDTPL [PLCB1, Q9NQ66] | below the threshold
58 | NLQEHSTTSV [RSBN1, Q5VWQ0] | below the threshold
